Source: the supplement of paper PMC12042874
± gives the uncertainty stated by the source.

assay: amyloid nucleation score (Sup35N fusion, yeast selection) (log enrichment); library NNK2; higher = more nucleation; inactive = no reads after selection
In short: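 The nucleation score is a DiMSum log enrichment of output over input reads, centred on the mode score of non-aggregating sequences. Sequences under 100 input reads were excluded, and reads came from Illumina sequencing of plasmid inserts. Psi-negative yeast expressing Sup35N fused to peptides of 20 random codons were induced with 100 μM copper sulfate for 24 hours and grown 7 days at 30°C on medium lacking adenine and uracil. Random libraries had three technical output replicates.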

Substance	amyloid nucleation score
NNYIVTW	0.233 ± 0.74
NPGGMQDEQEVVIWAPTRFL	-0.161 ± 0.39
NPLQRTVYWFIIKRDCFHSV	-1.46 ± 0.45
NQCISDPNSCSSCALL	inactive
NQLIGHVFSFVDKSKSFSSS	0.243 ± 0.56
NQQPKSLLYVSRRMQGTMIF	0.089 ± 0.8
NRAVGLLRYTMVMGT	0.026 ± 1.1
NRCRNNGQLRGQCICGSVCL	-0.284 ± 0.39
NRDKF	-1.07 ± 0.28
NREIMMD	-0.184 ± 1.1
NRETGANCARMPKVNVWEQQ	0.865 ± 0.25
NRKCSAESMTEGVRPLDSHY	inactive
NRKLWVYIFSELSDDGLQFR	inactive
NRNLDGFLPWNVHEAVGL	-0.003 ± 0.42
NRNQRSVDRCGFSWYGTQIG	1.3 ± 0.32
NRPMEGRLKWSMTVLIVSLY	-0.187 ± 0.65
NRSLGNHAEYNHASRLKGDS	-0.658 ± 0.31
NRTCVLSNPFPFPHNIPGVC	-0.815 ± 0.54
NRWAYGVFWHSWFIKSHFG	0.14 ± 1
NRWMRGDTVWNVGWWSPNWG	0.173 ± 0.46
NSELLFLGVEWNRT	-0.142 ± 0.79
NSFYRCYVRCIVSVRFLCCH	5.008 ± 0.035
NSHFALDGKSW	-0.711 ± 0.39

Substance	amyloid nucleation score
NSNLLNTLFWVVT	4.03 ± 0.13
NSNTKTSPIISW	inactive
NSRLLVDGHFIRTFRAFWVN	-1.12 ± 0.56
NSSEINHSKG	-0.788 ± 1.1
NSSTTHAGLVYYYSGKGPRV	inactive
NSSVCVRNRCGVWIDLKGII	5.06 ± 0.095
NSSYTVGHGPDT	inactive
NSTKTRLSSDTTLDFLEATR	-0.299 ± 0.27
NSVFAGRRTRTSFP	0.227 ± 0.62
NSVFFY	-1.63 ± 1.1
NSVLVLAWWVNANCGLREGG	5.454 ± 0.041
NSVTNNIRSWIPHLDKGYGG	-0.487 ± 1.1
NSWASPTVVFIRPVHMLLVL	0.158 ± 0.25
NSYFGRAFNVSMPYKLRWKF	-1.41 ± 1.1
NTEFIFQELRVMSHEVCIHI	inactive
NTELSVMPGRLSNFIKLNVT	-0.248 ± 0.65
NTGSLRYWHCVSSGNSTTGR	inactive
NTGSLWG	-1.41 ± 1.1
NTLRMIPADFPSGRLEQTKV	0.552 ± 0.4
NTLSPFQIEFGGWLMGVLFK	0.611 ± 0.81
NTMLAFAKKSRMHFSLLLLV	-0.022 ± 0.37
NTNAHVRMVDLVSGCASQWL	1.75 ± 0.3
NTRCRSVTLMLGFSMESKVH	0.76 ± 0.54

Substance	amyloid nucleation score
NTSHGFQSNPRGAYERILCV	-0.961 ± 0.63
NTWYLTKADLDRVGAVMVQT	inactive
NVFFSFSMYKDAYNE	-0.937 ± 0.54
NVFLLSVREMSSFLRTTTLG	1.24 ± 0.17
NVFLRPSFRGVHK	2.05 ± 0.092
NVFVCPAFQRTWVWMAVMSW	inactive
NVHRRMSEYVCVDRWEEWVR	0.811 ± 0.67
NVITRGM	0.899 ± 0.38
NVKICFCSVMSSTCRYNRT	7.878 ± 0.064
NVLRMMC	-0.286 ± 0.27
NVMKSLFGRC	0.359 ± 0.48
NVNMVMNNSGKSRLCISENY	-0.19 ± 1
NVQALMN	0.012 ± 0.74
NVVSEEIMVCIVVSDLKRFR	0.619 ± 0.29
NWASKTFYGSYGSRYCQFGE	1.07 ± 0.59
NWIPYVWGWIALIVGSDF	-0.158 ± 0.55
NWLSMWLWFVCMSLVCMVFR	1.77 ± 0.16
NWMHC	1.39 ± 0.42
NWNVRRYVTPAFEFRGCV	0.833 ± 0.74
NWPNPVSLMSRIDFRMV	-0.131 ± 0.31
NWSHELQIQLCAMAYREWSE	5.777 ± 0.038
NWSNLEWWL	0.054 ± 0.77
NWVSIEHNYIFVLRYPENAS	8.465 ± 0.042
